Target: nucleosome core particle labeled with H4Kc20me2
Assay: native gel or EMSA

**Q.** For “human Origin Recognition Complex subunit 1 BAH domain, R105Q mutant (from UniProt Q13415 45-171) (domain or fragment)”, which fold reduction of affinity against wild type hORC1BAH is on record?
**A.** > 2 fold
